This data set concerns the target T1, TCP4 DNA-binding domain (Arabidopsis thaliana, UniProt Q8LPR5 45-103).
T1 sequence: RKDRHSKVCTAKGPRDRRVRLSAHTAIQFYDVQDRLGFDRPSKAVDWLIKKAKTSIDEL
As to the kind of experiment: EMSA. On the technique in general: A gel shift assay detects complexes by their altered migration in electrophoresis.

The source of these data is paper PMC9284284.

B1: SOC1-DNA (dsDNA)
DNA 1: TAATTAGTTTGTGTGGTCCTCCTCCCGATA
DNA 2: TATCGGGAGGAGGACCACACAAACTAATTA
B1: the binding result is “binds”.
